The labels stand for the following.
T1: biotinylated human Robo3 FN1–3 (Avi-tagged) (human, UniProt Q96MS0 558-869, biotin on the Avi-tag (BirA))
T1 construct: Robo3, human, FN domains 1-3; also called biotinylated hRobo3 FN1–3; hRobo3 FN1–3; source: High Five cells (baculovirus), secreted, purified (Ni-NTA, SEC), biotinylated with BirA
T1 sequence (looked up): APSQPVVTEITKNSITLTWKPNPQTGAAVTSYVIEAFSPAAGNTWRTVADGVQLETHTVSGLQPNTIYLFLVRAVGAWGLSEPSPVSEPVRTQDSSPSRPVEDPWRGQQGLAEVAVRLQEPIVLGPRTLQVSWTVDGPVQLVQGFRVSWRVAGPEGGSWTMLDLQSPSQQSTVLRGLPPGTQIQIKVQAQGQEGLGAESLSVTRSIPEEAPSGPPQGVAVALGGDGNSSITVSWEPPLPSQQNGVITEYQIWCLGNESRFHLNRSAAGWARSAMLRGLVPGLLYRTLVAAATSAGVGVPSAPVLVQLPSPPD

T2: mouse Robo1 FN1–3 (mouse, UniProt O89026 524-835, biotin on the N-terminal amine (NHS-Biotin at pH 6.5))
T2 construct: Robo1, mouse, FN domains 1-3; also called mRobo1 FN1–3; source: High Five cells (baculovirus), secreted, purified (Ni-NTA, SEC)
T2 sequence (looked up): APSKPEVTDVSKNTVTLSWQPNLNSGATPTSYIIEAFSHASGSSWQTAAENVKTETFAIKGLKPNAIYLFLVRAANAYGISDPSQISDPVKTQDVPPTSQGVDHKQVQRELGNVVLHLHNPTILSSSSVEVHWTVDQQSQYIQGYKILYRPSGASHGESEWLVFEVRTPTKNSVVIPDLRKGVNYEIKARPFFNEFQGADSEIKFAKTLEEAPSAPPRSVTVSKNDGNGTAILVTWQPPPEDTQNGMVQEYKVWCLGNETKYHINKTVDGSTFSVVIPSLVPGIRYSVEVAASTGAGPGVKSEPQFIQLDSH

B1: mNELL1 (full length) (ligand, mouse, UniProt Q2VWQ2 25-809, looked up)
chain: DPDLQMDIITELDLVNTTLGVTQVAGLHNASKAFLFQDVQREIHSAPHVSEKLIQLFRNKSEFTFLATVQQKPSTSGVILSIRELEHSYFELESSGPREEIRYHYIHGGKPRTEALPYRMADGQWHKVALSVSASHLLLHVDCNRIYERVIDPPETNLPPGSNLWLGQRNQKHGFFKGIIQDGKIIFMPNGFITQCPNLNRTCPTCSDFLSLVQGIMDLQELLAKMTAKLNYAETRLGQLENCHCEKTCQVSGLLYRDQDSWVDGDNCRNCTCKSGAVECRRMSCPPLNCSPDSLPVHISGQCCKVCRPKCIYGGKVLAEGQRILTKTCRECRGGVLVKITEACPPLNCSEKDHILPENQCCRVCRGHNFCAEAPKCGENSECKNWNTKATCECKNGYISVQGNSAYCEDIDECAAKMHYCHANTVCVNLPGLYRCDCIPGYIRVDDFSCTEHDDCGSGQHNCDKNAICTNTVQGHSCTCQPGYVGNGTVCKAFCEEGCRYGGTCVAPNKCVCPSGFTGSHCEKDIDECAEGFVECHNHSRCVNLPGWYHCECRSGFHDDGTYSLSGESCIDIDECALRTHTCWNDSACINLAGGFDCLCPSGPSCSGDCPHEGGLKHNGQVWILREDRCSVCSCKDGKIFCRRTACDCQNPNVDLFCCPECDTRVTSQCLDQSGQKLYRSGDNWTHSCQQCRCLEGEADCWPLACPSLSCEYTAIFEGECCPRCVSDPCLADNIAYDIRKTCLDSSGISRLSGAVWTMAGSPCTTCQCKNGRVCCSVDLVCLEN
notes: mouse NELL1, D25-N809; trimer by MALS; also called NELL1FL (Polyhedrin, mouse); source: High Five cells (baculovirus), purified (Ni-NTA, SEC)
B2: full-length mouse NELL2 (ligand, UniProt Q61220 25-819, looked up)
chain: LGVDPSLQIDVLTELELGESTDGVRQVPGLHNGTKAFLFQESPRSIKASTATAERFFQKLRNKHEFTILVTLKQIHLNSGVILSIHHLDHRYLELESSGHRNEIRLHYRSGTHRPHTEVFPYILADAKWHKLSLAFSASHLILHIDCNKIYERVVEMPSTDLPLGTTFWLGQRNNAHGYFKGIMQDVHVLVMPQGFIAQCPDLNRTCPTCNDFHGLVQKIMELQDILSKTSAKLSRAEQRMNRLDQCYCERTCTVKGTTYRESESWTDGCKNCTCLNGTIQCETLVCPAPDCPPKSAPAYVDGKCCKECKSTCQFQGRSYFEGERNTVYSSSGMCVLYECKDQTMKLVENIGCPPLDCPESHQIALSHSCCKVCKGYDFCSEKHTCMENSVCRNLNDRAVCSCRDGFRALREDNAYCEDIDECAEGRHYCRENTMCVNTPGSFMCICKTGYIRIDDYSCTEHDECLTNQHNCDENALCFNTVGGHNCVCKPGYTGNGTTCKAFCKDGCRNGGACIAANVCACPQGFTGPSCETDIDECSEGFVQCDSRANCINLPGWYHCECRDGYHDNGMFAPGGESCEDIDECGTGRHSCTNDTICFNLDGGYDCRCPHGKNCTGDCVHEGKVKHTGQIWVLENDRCSVCSCQTGFVMCRRMVCDCENPTVDLSCCPECDPRLSSQCLHQNGETVYNSGDTWVQDCRQCRCLQGEVDCWPLACPEVECEFSVLPENECCPRCVTDPCQADTIRNDITKTCLDEMNVVRFTGSSWIKHGTECTLCQCKNGHLCCSVDPQCLQEL
modifications: biotin (NHS-Biotin) where captured on the SA chip for SPR
notes: NELL2, mouse; called full-length; the methods say that mature domains were cloned into pAcGP67A; Trimer by MALS; also called mNELL2; mNELL2 ectodomain; source: High Five cells (baculovirus), secreted, purified (Ni-NTA, SEC); not shown: His6, C-terminal, kept
B3: mouse Robo1 ectodomain (domain or fragment, UniProt O89026 20-858, looked up)
chain: SRLRQEDFPPRIVEHPSDLIVSKGEPATLNCKAEGRPTPTIEWYKGGERVETDKDDPRSHRMLLPSGSLFFLRIVHGRKSRPDEGVYICVARNYLGEAVSHNASLEVAILRDDFRQNPSDVMVAVGEPAVMECQPPRGHPEPTISWKKDGSPLDDKDERITIRGGKLMITYTRKSDAGKYVCVGTNMVGERESEVAELTVLERPSFVKRPSNLAVTVDDSAEFKCEARGDPVPTVRWRKDDGELPKSRYEIRDDHTLKIRKVTAGDMGSYTCVAENMVGKAEASATLTVQEPPHFVVKPRDQVVALGRTVTFQCEATGNPQPAIFWRREGSQNLLFSYQPPQSSSRFSVSQTGDLTITNVQRSDVGYYICQTLNVAGSIITKAYLEVTDVIADRPPPVIRQGPVNQTVAVDGTLILSCVATGSPAPTILWRKDGVLVSTQDSRIKQLESGVLQIRYAKLGDTGRYTCTASTPSGEATWSAYIEVQEFGVPVQPPRPTDPNLIPSAPSKPEVTDVSKNTVTLSWQPNLNSGATPTSYIIEAFSHASGSSWQTAAENVKTETFAIKGLKPNAIYLFLVRAANAYGISDPSQISDPVKTQDVPPTSQGVDHKQVQRELGNVVLHLHNPTILSSSSVEVHWTVDQQSQYIQGYKILYRPSGASHGESEWLVFEVRTPTKNSVVIPDLRKGVNYEIKARPFFNEFQGADSEIKFAKTLEEAPSAPPRSVTVSKNDGNGTAILVTWQPPPEDTQNGMVQEYKVWCLGNETKYHINKTVDGSTFSVVIPSLVPGIRYSVEVAASTGAGPGVKSEPQFIQLDSHGNPVSPEDQVSLAQQISDVVRQP
notes: Robo1, mouse, ectodomain; Mostly dimeric, in equilibrium with monomer and higher oligomers; also called mRobo1 ectodomain; mRobo1; source: High Five cells (baculovirus), secreted, purified (Ni-NTA, SEC)
B4: mouse Robo3 FN1 domain (domain or fragment, UniProt Q9Z2I4 558-652, looked up)
chain: PPSQPIVTEVTANSITLTWKPNPQSGATATSYVIEAFSQAAGNTWRTVADGVQLETYTISGLQPNTIYLFLVRAVGAWGLSEPSPVSEPVQTQDS
notes: Robo3, mouse, FN1 domain; also called mRobo3 FN1; source: High Five cells (baculovirus), secreted, purified (Ni-NTA, SEC); not shown: His6, C-terminal, kept
B5: human NELL2 EGF domains 1-6 (domain or fragment)
chain: not shown
notes: NELL2, human, EGF domains 1-6; also called hNELL2 EGF1–6; NELL2 EGF1–6; source: High Five cells (baculovirus), secreted, purified (Ni-NTA, SEC)
B6: mouse NELL2 EGF1–6, wild type (domain or fragment)
chain: not shown
notes: NELL2, mouse, EGF domains 1-6; also called mNELL2 EGF1–6 WT; mNELL2 EGF1–6; source: High Five cells (baculovirus), secreted, purified (Ni-NTA, SEC)

Data set [1] concerns the molecule itself. Description: SEC-MALS; Superose 6 Increase 10/300 in HBS (10 mM HEPES pH 7.2, 150 mM NaCl), Wyatt HELEOS II. (In general: In gel filtration, larger molecules generally elute earlier.)
Data set [2] concerns the molecule itself. As to the kind of experiment: SEC-MALS; Wyatt HELEOS II coupled to an AKTA FPLC, Superose Increase 6 10/300, HBS; Zimm model.
The data set “mouse Robo1 ectodomain” deals with B3. Description: SPR; mRobo1 ectodomain on a CM5 chip by random amine coupling (~1,200 R.U.); mNELL2 as analyte; KD from equilibrium responses assuming 50 to 100% active surface; buffer as for the other SPR experiments, 25 °C. Particulars: both partners purified.
Data set [3] deals with the molecule itself. Description: AUC; sedimentation velocity, 20 °C, c(s) analysis in SEDFIT; single concentration 2.5 µM mRobo1 and 1.8 µM mRobo3 at 200,000 g, and concentration series (mRobo3 up to 20 µM).
In the data set “full-length mouse NELL2” the target is B2. As to the kind of experiment: SEC; complex of full-length mNELL2 and mRobo3 FN1 purified by SEC; peak fractions quantified in triplicate by western blot against the His6 tag with 1:1 molar standards. Particulars: both partners purified.
In data set [4] the target is T1, biotinylated human Robo3 FN1–3 …. As to the kind of experiment: SPR; biotinylated hRobo3 FN1–3 captured on an NLC (neutravidin) chip, ProteOn XPR36; NELL EGF constructs as analyte; 25 °C, 10 mM HEPES pH 7.2, 150 mM NaCl, 0.05% Tween-20, 0.1% BSA; equilibrium responses, 1:1 Langmuir model. To be noted: both partners purified. For orientation: Surface plasmon resonance follows binding to a sensor surface in real time, without labels.

The target in another data set is T2, mouse Robo1 FN1–3. As to the kind of experiment: SPR; mRobo1 FN1–3 biotinylated at the N-terminal amine (NHS-Biotin, pH 6.5), 315 RU captured on a Biacore SA chip; mNELL2 EGF1–6 as analyte; Langmuir isotherm. To be noted: both partners purified.

Values joined by “and” are separate entries in the source; they are usually repeats but may differ in a detail not shown here. Identical values can stand only once.

Consider B1, for which, in data set [1], the “stoichiometry N” value was determined as 3. Consider B2, for which the “stoichiometry N” value in data set [2] was 3. In addition, in the data set with mouse Robo1 ectodomain, the Kd is ~350 µM and 190 to 400 µM. For B3, the “stoichiometry N” value in data set [3] was determined as 2. Regarding B4, the “stoichiometry N” value with full-length mouse NELL2 is 3 mRobo3 FN1 per mNELL2 trimer.

As for B5, the dissociation constant Kd in data set [4] was determined as 0.6 µM. For the molecule B6, binding with mouse Robo1 FN1–3 was characterised by a dissociation constant (Kd) of 14 µM. That is a double-digit micromolar value.

One may read the stoichiometry N as the number of molecules, sites or subunits per partner or assembly. A word on the Kd: it is a measure of binding affinity in units of concentration. High values mean a looser complex, low ones a tighter complex.

Source of the values: article PMC7083938, “NELL2-Robo3 complex structure reveals mechanisms of receptor activation for axon guidance” (Nature Communications, 2020).
